Laboratory results reported in ChEMBL document CHEMBL4673265, “The food-grade antimicrobial xanthorrhizol targets the enoyl-ACP reductase (FabI) in Escherichia coli” (Bioorg Med Chem Lett, 2020).
Substitutions are numbered along the chain they refer to. In names and notes the source's numbering stands.

How the values were obtained:
[1] = compound: NC(=O)C1=CN([C@@H]2O[C@H](COP(=O)(O)OP(=O)(O)OC[C@H]3O[C@@H](n4cnc5c(N)ncnc54)[C@H](O)[C@@H]3O)[C@@H](O)[C@H]2O)C=CC1; assay: Inhibition of wild-type Escherichia coli FabI catalytic activity
[2] = compound: NC(=O)C1=CN([C@@H]2O[C@H](COP(=O)(O)OP(=O)(O)OC[C@H]3O[C@@H](n4cnc5c(N)ncnc54)[C@H](O)[C@@H]3O)[C@@H](O)[C@H]2O)C=CC1; assay: Inhibition of wild-type Escherichia coli FabI assessed as reduction in Km
[3] = compound: NC(=O)C1=CN([C@@H]2O[C@H](COP(=O)(O)OP(=O)(O)OC[C@H]3O[C@@H](n4cnc5c(N)ncnc54)[C@H](O)[C@@H]3O)[C@@H](O)[C@H]2O)C=CC1; assay: Inhibition of wild-type Escherichia coli FabI assessed as ratio of Kcat/Km
[4] = compound: NC(=O)C1=CN([C@@H]2O[C@H](COP(=O)(O)OP(=O)(O)OC[C@H]3O[C@@H](n4cnc5c(N)ncnc54)[C@H](O)[C@@H]3O)[C@@H](O)[C@H]2O)C=CC1; assay: Inhibition of Escherichia coli FabI G93V mutant catalytic activity
[5] = compound: NC(=O)C1=CN([C@@H]2O[C@H](COP(=O)(O)OP(=O)(O)OC[C@H]3O[C@@H](n4cnc5c(N)ncnc54)[C@H](O)[C@@H]3O)[C@@H](O)[C@H]2O)C=CC1; assay: Inhibition of Escherichia coli FabI G93V mutant assessed as reduction in Km
[6] = compound: NC(=O)C1=CN([C@@H]2O[C@H](COP(=O)(O)OP(=O)(O)OC[C@H]3O[C@@H](n4cnc5c(N)ncnc54)[C@H](O)[C@@H]3O)[C@@H](O)[C@H]2O)C=CC1; assay: Inhibition of Escherichia coli FabI G93V mutant assessed as ratio of Kcat/Km
[7] = compound: CC(C)=CCC[C@@H](C)c1ccc(C)c(O)c1; assay: Uncompetitive inhibition of Escherichia coli FabI G93V mutant assessed inhibition constant using NADH as substrate by Lineweaver-Burk analysis
[8] = compound: NC(=O)C1=CN([C@@H]2O[C@H](COP(=O)(O)OP(=O)(O)OC[C@H]3O[C@@H](n4cnc5c(N)ncnc54)[C@H](O)[C@@H]3O)[C@@H](O)[C@H]2O)C=CC1; assay: Inhibition of Escherichia coli FabI F203L mutant catalytic activity
[9] = compound: NC(=O)C1=CN([C@@H]2O[C@H](COP(=O)(O)OP(=O)(O)OC[C@H]3O[C@@H](n4cnc5c(N)ncnc54)[C@H](O)[C@@H]3O)[C@@H](O)[C@H]2O)C=CC1; assay: Inhibition of Escherichia coli FabI F203L mutant assessed as reduction in Km
[10] = compound: NC(=O)C1=CN([C@@H]2O[C@H](COP(=O)(O)OP(=O)(O)OC[C@H]3O[C@@H](n4cnc5c(N)ncnc54)[C@H](O)[C@@H]3O)[C@@H](O)[C@H]2O)C=CC1; assay: Inhibition of Escherichia coli FabI F203L mutant assessed as ratio of Kcat/Km
[11] = compound: NC(=O)C1=CN([C@@H]2O[C@H](COP(=O)(O)OP(=O)(O)OC[C@H]3O[C@@H](n4cnc5c(N)ncnc54)[C@H](O)[C@@H]3O)[C@@H](O)[C@H]2O)C=CC1; assay: Inhibition of Escherichia coli FabI Y156V mutant catalytic activity
[12] = compound: NC(=O)C1=CN([C@@H]2O[C@H](COP(=O)(O)OP(=O)(O)OC[C@H]3O[C@@H](n4cnc5c(N)ncnc54)[C@H](O)[C@@H]3O)[C@@H](O)[C@H]2O)C=CC1; assay: Inhibition of Escherichia coli FabI Y156V mutant assessed as reduction in Km
[13] = compound: NC(=O)C1=CN([C@@H]2O[C@H](COP(=O)(O)OP(=O)(O)OC[C@H]3O[C@@H](n4cnc5c(N)ncnc54)[C@H](O)[C@@H]3O)[C@@H](O)[C@H]2O)C=CC1; assay: Inhibition of Escherichia coli FabI Y156V mutant assessed as ratio of Kcat/Km
[14] = compound: NC(=O)C1=CN([C@@H]2O[C@H](COP(=O)(O)OP(=O)(O)OC[C@H]3O[C@@H](n4cnc5c(N)ncnc54)[C@H](O)[C@@H]3O)[C@@H](O)[C@H]2O)C=CC1; assay: Inhibition of Escherichia coli FabI F203V mutant catalytic activity
[15] = compound: NC(=O)C1=CN([C@@H]2O[C@H](COP(=O)(O)OP(=O)(O)OC[C@H]3O[C@@H](n4cnc5c(N)ncnc54)[C@H](O)[C@@H]3O)[C@@H](O)[C@H]2O)C=CC1; assay: Inhibition of Escherichia coli FabI F203V mutant assessed as reduction in Km
[16] = compound: NC(=O)C1=CN([C@@H]2O[C@H](COP(=O)(O)OP(=O)(O)OC[C@H]3O[C@@H](n4cnc5c(N)ncnc54)[C@H](O)[C@@H]3O)[C@@H](O)[C@H]2O)C=CC1; assay: Inhibition of Escherichia coli FabI F203V mutant assessed as ratio of Kcat/Km

B1: Enoyl-[acyl-carrier-protein] reductase [NADH] FabI (Escherichia coli K-12), P0AEK4 (protein)
chain: MGFLSGKRILVTGVASKLSIAYGIAQAMHREGAELAFTYQNDKLKGRVEEFAAQLGSDIVLQCDVAEDASIDTMFAELGKVWPKFDGFVHSIGFAPGDQLDGDYVNAVTREGFKIAHDISSYSFVAMAKACRSMLNPGSALLTLSYLGAERAIPNYNVMGLAKASLEANVRYMANAMGPEGVRVNAISAGPIRTLAASGIKDFRKMLAHCEAVTPIRRTVTIEDVGNSAAFLCSDLSAGISGEVVHVDGGFSIAAMNELELK
[1]
  kcat: 10.8 s⁻¹
[2]
  Km: 70.2 µM
[3]
  kcat/Km: 150000 M⁻¹ s⁻¹

B2: Enoyl-[acyl-carrier-protein] reductase [NADH] FabI (Escherichia coli K-12), P0AEK4 G93V (protein)
chain: B1 chain with G93V
[4]
  kcat: 3.44 s⁻¹
[5]
  Km: 30.9 µM
[6]
  kcat/Km: 110000 M⁻¹ s⁻¹
[7]
  Ki: 4.1 µM

B3: Enoyl-[acyl-carrier-protein] reductase [NADH] FabI (Escherichia coli K-12), P0AEK4 F203L (protein)
chain: B1 chain with F203L
[8]
  kcat: 3.65 s⁻¹
[9]
  Km: 51.5 µM
[10]
  kcat/Km: 70000 M⁻¹ s⁻¹

B4: Enoyl-[acyl-carrier-protein] reductase [NADH] FabI (Escherichia coli K-12), P0AEK4 Y156V (protein)
chain: B1 chain with Y156V
[11]
  kcat: 0.16 s⁻¹
[12]
  Km: 41.7 µM
[13]
  kcat/Km: 4000 M⁻¹ s⁻¹

B5: Enoyl-[acyl-carrier-protein] reductase [NADH] FabI (Escherichia coli K-12), P0AEK4 F203V (protein)
chain: B1 chain with F203V
[14]
  kcat: 0.38 s⁻¹
[15]
  Km: 44.2 µM
[16]
  kcat/Km: 9000 M⁻¹ s⁻¹
